For the assay, the target named is T1, 人PCSK9抗原多肽 (前蛋白转化酶枯草溶菌素9, PCSK9) (human, UniProt Q8NBP7 31-692, limits assumed).
T1 construct: Expressed in CHO cells; also called PCSK9蛋白; Proprotein convertase subtilisin/kexin type 9
The assay is described as follows: ProteOn (SPR), PCSK9 immobilised on chip, nanobody dilution series as analyte.

T1 sequence (Q8NBP7 31-692 limits assumed): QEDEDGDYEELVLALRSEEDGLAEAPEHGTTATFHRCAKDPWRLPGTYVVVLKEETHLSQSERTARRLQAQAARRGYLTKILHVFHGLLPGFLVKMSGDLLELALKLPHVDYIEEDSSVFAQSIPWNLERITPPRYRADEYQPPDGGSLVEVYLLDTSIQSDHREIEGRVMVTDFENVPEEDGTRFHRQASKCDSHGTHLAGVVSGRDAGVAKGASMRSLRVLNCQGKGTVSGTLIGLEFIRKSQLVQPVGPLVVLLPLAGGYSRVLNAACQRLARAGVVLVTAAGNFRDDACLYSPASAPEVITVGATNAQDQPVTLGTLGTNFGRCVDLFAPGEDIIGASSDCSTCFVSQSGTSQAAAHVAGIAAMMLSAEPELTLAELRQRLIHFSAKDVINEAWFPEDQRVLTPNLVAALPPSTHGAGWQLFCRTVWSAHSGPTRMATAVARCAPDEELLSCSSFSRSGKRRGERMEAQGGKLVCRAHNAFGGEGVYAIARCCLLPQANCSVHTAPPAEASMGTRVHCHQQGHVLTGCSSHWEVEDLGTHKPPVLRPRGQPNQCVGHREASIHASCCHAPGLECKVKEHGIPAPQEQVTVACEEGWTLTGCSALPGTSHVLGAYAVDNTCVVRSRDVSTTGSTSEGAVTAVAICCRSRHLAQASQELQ

B1: PCSK9纳米抗体 (VHH)
VHH: ESGGGSVQAGGSLRLSCTVSGYTYSSNCMGWFRQAPGKEHEGVASIYIGGGSTYYADSVKGRFTISQDNAKNTVYLQMNSLKPEDTAMYYCAVGCQGLVDFGYWDQGTQVTVSS
notes: Expressed from pMECS in E. coli HB2151 and purified on a Ni column; also called PCSK9 Nb; PCSK9 nanobody; not shown: tags from the pMECS vector (HA tag detected with anti-HA antibody); purified on a
As a reminder, the Kd is the constant that tells how readily two partners part at equilibrium. Lower therefore signals tighter binding. For orientation: koff means the first-order rate constant of dissociation. By kon is commonly meant a measure of how fast the partners come together. A low value points to slow association. The molecule B1 yielded a Kd of 25 nM, a koff of 0.000112 s⁻¹ and a kon of 4490 M⁻¹ s⁻¹.

Source of the values: patent CN109897110A (SHENZHEN BGI LIFE SCIENCE RES INSTITUTE, dated 2019).
